As a reminder, the Kd is the equilibrium constant for the complex coming apart. A high value points to a looser complex. The term EC50 denotes the concentration that produces a half-maximal response. Low readings indicate greater potency, high ones weaker potency.

Data on 2 molecules can be found in patent US20260176352A1 (BIRD ROCK BIO, published 2026).

The target of one assay is T1, human CB2 (human, UniProt P34972 1-360).
T1 construct: whole, on cells; also called TRexCHO Human CB2
Kind of assay: flow cytometry on cells expressing the target.

The target of another assay is T2, mouse CB1 (mouse, UniProt P47746 1-473).
T2 construct: whole, on cells; also called TRexCHO Mouse CB1
Kind of assay: flow cytometry on cells expressing the target.

The target in assay [1] is 5HT2B (expression cell line) (Homo sapiens (Human), UniProt P41595 1-481). In words: flow cytometry on cells expressing the target. In general terms: Flow cytometry measures light scatter and fluorescence of single cells or particles in a stream.
Assay [2] deals with T3, native full length human CB1 receptor (cannabinoid 1 receptor) (human, UniProt P21554 1-472).
T3 construct: whole, on cells; also called A156; Native human CB1 TRex CHO A156
In words: flow cytometry, Fab on TRex-CHO human CB1 cells.
Protocol: Three-fold serial dilutions from 3 μM to 0.1 μM were prepared.

The target in assay [3] is T3, native full length human CB1 receptor …. Kind of assay: cell-based or functional assay.
Assay [4] shares this target. In words: binding to CB1 cells (FIG. 12); labeled with Vivotag 680 XL.

Positions count from the first letter of the chain named.

T3 sequence (P21554 whole entry): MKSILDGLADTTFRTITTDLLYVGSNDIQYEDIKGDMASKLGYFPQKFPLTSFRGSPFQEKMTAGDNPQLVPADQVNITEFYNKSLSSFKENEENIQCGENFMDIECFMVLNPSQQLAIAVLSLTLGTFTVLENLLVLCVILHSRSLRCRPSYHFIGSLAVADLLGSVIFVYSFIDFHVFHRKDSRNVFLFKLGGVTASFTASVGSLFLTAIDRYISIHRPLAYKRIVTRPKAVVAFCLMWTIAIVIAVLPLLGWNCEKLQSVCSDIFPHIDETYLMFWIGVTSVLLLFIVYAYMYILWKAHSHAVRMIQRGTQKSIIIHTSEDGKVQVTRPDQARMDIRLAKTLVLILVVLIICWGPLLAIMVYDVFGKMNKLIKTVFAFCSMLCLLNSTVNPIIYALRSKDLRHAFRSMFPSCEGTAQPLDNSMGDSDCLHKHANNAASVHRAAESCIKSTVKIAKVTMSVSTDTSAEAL
T2 sequence (P47746 whole entry): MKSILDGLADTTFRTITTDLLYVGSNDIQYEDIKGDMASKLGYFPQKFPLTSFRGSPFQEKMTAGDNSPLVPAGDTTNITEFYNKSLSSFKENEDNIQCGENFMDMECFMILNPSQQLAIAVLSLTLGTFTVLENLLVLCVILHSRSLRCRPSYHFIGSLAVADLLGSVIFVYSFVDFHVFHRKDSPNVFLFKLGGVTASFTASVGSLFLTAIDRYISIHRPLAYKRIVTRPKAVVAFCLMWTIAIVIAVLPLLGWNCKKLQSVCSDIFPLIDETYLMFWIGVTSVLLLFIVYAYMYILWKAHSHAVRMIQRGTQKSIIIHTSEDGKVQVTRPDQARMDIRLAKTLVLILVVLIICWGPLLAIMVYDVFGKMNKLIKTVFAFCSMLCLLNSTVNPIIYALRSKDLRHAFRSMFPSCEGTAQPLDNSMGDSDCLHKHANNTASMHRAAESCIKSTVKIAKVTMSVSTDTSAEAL
5HT2B (expression cell line), sequence (P41595 whole entry): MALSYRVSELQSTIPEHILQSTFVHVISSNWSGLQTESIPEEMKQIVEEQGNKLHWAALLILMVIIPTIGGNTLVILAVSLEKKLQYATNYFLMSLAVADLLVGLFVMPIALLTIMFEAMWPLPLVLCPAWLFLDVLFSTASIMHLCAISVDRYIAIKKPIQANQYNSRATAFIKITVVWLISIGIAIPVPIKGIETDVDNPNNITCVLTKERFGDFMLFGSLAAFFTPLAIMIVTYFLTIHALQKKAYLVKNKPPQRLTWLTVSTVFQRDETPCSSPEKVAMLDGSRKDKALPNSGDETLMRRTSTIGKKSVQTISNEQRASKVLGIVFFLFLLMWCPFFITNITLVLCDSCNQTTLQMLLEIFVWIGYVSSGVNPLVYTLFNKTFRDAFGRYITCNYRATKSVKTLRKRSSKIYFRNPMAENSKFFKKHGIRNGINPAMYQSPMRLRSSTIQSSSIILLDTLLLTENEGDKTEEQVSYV
T1 sequence (P34972 whole entry): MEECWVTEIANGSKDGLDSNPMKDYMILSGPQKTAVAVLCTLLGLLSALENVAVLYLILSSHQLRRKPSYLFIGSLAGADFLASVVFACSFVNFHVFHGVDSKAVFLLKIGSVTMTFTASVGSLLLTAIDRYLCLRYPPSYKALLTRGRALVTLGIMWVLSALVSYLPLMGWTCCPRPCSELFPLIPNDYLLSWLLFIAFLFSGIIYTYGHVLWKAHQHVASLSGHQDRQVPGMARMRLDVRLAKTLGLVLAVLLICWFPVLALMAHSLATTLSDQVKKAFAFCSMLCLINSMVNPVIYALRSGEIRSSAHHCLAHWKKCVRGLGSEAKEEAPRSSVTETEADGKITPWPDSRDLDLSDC

B1: PA13R3-P1C4 Fab (Fab, V domains shown)
VH: EVQLQQSGAELVRPGVSVKISCKASGYEFSYYWMNWVKQRPGQGLEWIGQIYPGDGETKYNGKFKGKATLTADKSSNTAYMQLSSLTSEDSAVYFCARSHGNYLPYWGQGTLVTVSA
VL: DIVLTQSPAIMSASLGERVTMTCTASSSVSSSYLHWYQQKPGSSPKLWIYSTSNLASGVPARFSGSGSGTSYSLTISSMEAEDAATYYCHQYHRSPPTFGAGTKLELK
notes: also called Chimeric P1C4 Fab
For B1, the binding result (with human CB2; with mouse CB1; in assay [1]) was “no binding (tested: 1 µM)” throughout. In assay [2], this molecule had a Kd of 130 nM. Besides, the “IC50 cAMP assay” value in assay [3] came out at 427 nM.

B2: P4B5 antibody labeled with Vivotag 680 XL (antibody, human IgG1, kappa, V domains shown)
VH: B1 VH with V16S, E28A, E57D, K59N, N61S, K63R, N77S, M81I, L104F
VL: DIVLNQSPAIMSASLGERVTMTCTASSSVSSSYLHWYQQKPGSSPKLWIYSTSNLASGVPARFSGSGSGTSYSLTISSMEAEDAATYYCHQYHRSPLTFGAGTKLEIKR
modifications: Vivotag 680 XL label, site and chain not stated
notes: also called Labeled P4B5
B2: in assay [4], the EC50 was determined as 57.8 nM.
